From IntAct's records for PubMed 22921914

B1: Protein SCARECROW (Arabidopsis thaliana (Mouse-ear cress)), Q9M384 (parent)
chain: MAESGDFNGGQPPPHSPLRTTSSGSSSSNNRGPPPPPPPPLVMVRKRLASEMSSNPDYNNSSRPPRRVSHLLDSNYNTVTPQQPPSLTAAATVSSQPNPPLSVCGFSGLPVFPSDRGGRNVMMSVQPMDQDSSSSSASPTVWVDAIIRDLIHSSTSVSIPQLIQNVRDIIFPCNPNLGALLEYRLRSLMLLDPSSSSDPSPQTFEPLYQISNNPSPPQQQQQHQQQQQQHKPPPPPIQQQERENSSTDAPPQPETVTATVPAVQTNTAEALRERKEEIKRQKQDEEGLHLLTLLLQCAEAVSADNLEEANKLLLEISQLSTPYGTSAQRVAAYFSEAMSARLLNSCLGIYAALPSRWMPQTHSLKMVSAFQVFNGISPLVKFSHFTANQAIQEAFEKEDSVHIIDLDIMQGLQWPGLFHILASRPGGPPHVRLTGLGTSMEALQATGKRLSDFADKLGLPFEFCPLAEKVGNLDTERLNVRKREAVAVHWLQHSLYDVTGSDAHTLWLLQRLAPKVVTVVEQDLSHAGSFLGRFVEAIHYYSALFDSLGASYGEESEERHVVEQQLLSKEIRNVLAVGGPSRSGEVKFESWREKMQQCGFKGISLAGNAATQATLLLGMFPSDGYTLVDDNGTLKLGWKDLSLLTASAWTPRS
partner: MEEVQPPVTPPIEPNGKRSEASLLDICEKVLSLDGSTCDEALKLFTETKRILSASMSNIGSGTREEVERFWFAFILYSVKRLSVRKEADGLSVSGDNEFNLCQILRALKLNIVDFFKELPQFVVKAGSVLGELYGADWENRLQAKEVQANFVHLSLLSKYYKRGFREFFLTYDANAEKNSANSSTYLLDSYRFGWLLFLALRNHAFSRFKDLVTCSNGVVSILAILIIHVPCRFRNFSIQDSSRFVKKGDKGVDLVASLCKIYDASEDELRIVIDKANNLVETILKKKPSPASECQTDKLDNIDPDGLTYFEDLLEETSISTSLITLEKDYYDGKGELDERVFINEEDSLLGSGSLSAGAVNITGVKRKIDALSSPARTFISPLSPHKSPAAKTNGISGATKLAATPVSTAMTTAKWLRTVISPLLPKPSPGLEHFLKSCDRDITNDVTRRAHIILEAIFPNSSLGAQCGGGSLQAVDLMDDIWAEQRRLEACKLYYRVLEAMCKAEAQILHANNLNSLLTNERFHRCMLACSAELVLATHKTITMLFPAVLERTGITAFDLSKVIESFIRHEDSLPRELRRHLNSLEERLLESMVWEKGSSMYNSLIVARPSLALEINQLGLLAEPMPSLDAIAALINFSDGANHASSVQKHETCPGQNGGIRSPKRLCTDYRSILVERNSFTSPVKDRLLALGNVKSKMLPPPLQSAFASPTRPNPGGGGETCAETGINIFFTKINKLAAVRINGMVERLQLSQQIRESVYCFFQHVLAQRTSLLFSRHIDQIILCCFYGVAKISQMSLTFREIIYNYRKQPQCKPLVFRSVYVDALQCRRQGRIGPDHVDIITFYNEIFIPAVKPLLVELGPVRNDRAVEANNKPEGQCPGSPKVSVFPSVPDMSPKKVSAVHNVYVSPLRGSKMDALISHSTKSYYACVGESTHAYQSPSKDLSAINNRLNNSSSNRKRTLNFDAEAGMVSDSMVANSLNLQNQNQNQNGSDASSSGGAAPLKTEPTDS

Variants of: B1
Settings: with rbr1_arath RBR1, Q9LKZ3

Variant | effect of a mutation on the interaction
L295A;E299A | disrupting interaction strength
